The chains are these.
B1: H69A, Q7SID9 (parent)
chain: STGPVAPLPTPPNFPNDIALFQQAYQNWSKEIMLDATWVCSPKTPQDVVRLANWAHEHDYKIRPRGAMHGWTPLTVEKGANVEKVILADTMTHLNGITVNTGGPVATVTAGAGASIEAIVTELQKHDLGWANLPAPGVLSIGGALAVNAHGAALPAVGQTTLPGHTYGSLSNLVTELTAVVWNGTTYALETYQRNDPRITPLLTNLGRCFLTSVTMQAGPNFRQRCQSYTDIPWRELFAPKGADGRTFEKFVAESGGAEAIWYPFTEKPWMKVWTVSPTKPDSSNEVGSLGSAGSLVGKPPQAREVSGPYNYIFSDNLPEPITDMIGAINAGNPGIAPLFGPAMYEITKLGLAATNANDIWGWSKDVQFYIKATTLRLTEGGGAVVTSRANIATVINDFTEWFHERIEFYRAKGEFPLNGPVEIRCCGLDQAADVKVPSVGPPTISATRPRPDHPDWDVAIWLNVLGVPGTPGMFEFYREMEQWMRSHYNNDDATFRPEWSKGWAFGPDPYTDNDIVTNKMRATYIEGVPTTENWDTARARYNQIDPHRVFTNGFMDKLLP

This note sets out measurements from FireProtDB (doi:10.1110/ps.073137708).

Where “and” joins values, the source holds several entries; their conditions need not be identical. Equal entries are not always repeated.

The data set covers variants of B1. As to conditions: Brevibacterium sterolicum; pH 7.5; 15 °C; Urea; Fluorescence; Potassium phosphate 50 mM; reversible: Yes (partial); structure 2I0K; whole UniProt chain shown.
For STGPVAPLPTPPNFPNDIALFQQAYQNWSKEIMLDATWVCSPKTPQDVVRLANWAHEHDYKIRPRGAMAGWTPLTVEKGANVEKVILADTMTHLNGITVNTGGPVATVTAGAGASIEAIVTELQKHDLGWANLPAPGVLSIGGALAVNAHGAALPAVGQTTLPGHTYGSLSNLVTELTAVVWNGTTYALETYQRNDPRITPLLTNLGRCFLTSVTMQAGPNFRQRCQSYTDIPWRELFAPKGADGRTFEKFVAESGGAEAIWYPFTEKPWMKVWTVSPTKPDSSNEVGSLGSAGSLVGKPPQAREVSGPYNYIFSDNLPEPITDMIGAINAGNPGIAPLFGPAMYEITKLGLAATNANDIWGWSKDVQFYIKATTLRLTEGGGAVVTSRANIATVINDFTEWFHERIEFYRAKGEFPLNGPVEIRCCGLDQAADVKVPSVGPPTISATRPRPDHPDWDVAIWLNVLGVPGTPGMFEFYREMEQWMRSHYNNDDATFRPEWSKGWAFGPDPYTDNDIVTNKMRATYIEGVPTTENWDTARARYNQIDPHRVFTNGFMDKLLP [H69A], the “denaturant midpoint (higher = more stable)” value was 2.9 M and 3.5 M and 2.7 M; the unfolding free energy is 1.53 kcal/mol and 1.36 kcal/mol and 1.2 kcal/mol.
